# B1: BC-1F10-IgG1 (antibody, V domains shown)
# VH: QVQLQQWGAGLLKPSETLSLICAVYDGSFSGDYWSWIRQPPGKGLEWIGEINHSGSTNYNPSLKSRVTISVDTSKNQFSLKLSSVTAADTAVYYCARGHWNYDYYYGMDVWGQGTTVTVSS
# VL: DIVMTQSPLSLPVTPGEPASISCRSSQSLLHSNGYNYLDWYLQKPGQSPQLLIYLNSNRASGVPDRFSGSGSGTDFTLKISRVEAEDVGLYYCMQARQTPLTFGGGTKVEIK
# notes: Human VH/VL joined to the human IgG1 subtype
# B2: BC-1B6-IgG1 (antibody, V domains shown)
# VH: QVQLVESGGGVVQPGRSLRLSCAASGFTFSNFGMHWVRQAPGKGLEWVAVIWYEGSDKYYADSVKGRFTISRDNSKNTLYLQMNSLRAEDTAVYYCARDSSWGFLLYGMDVWGQGTTVTVSS
# VL: DVVMTQSPLSLPVTLGQPASISCRSSRSLEYSDGNTYLNWFQQRPGQSPRRLIYKVSNRDSGVPDRFSGSGSGTAFTLKISGVEAEDVGVYYCMQGTHWPPTFGGGTKVEIK
# notes: as for B1
# B3: BC-1A8-IgG1 (antibody, V domains shown)
# VH: QVQLQQSGPGLVKPSQTLSLTCAISGDSVSSNSAAWNWIRQSPSRGLEWLGRTYYRSKWYNDYALSVKSRITINPETSKNQFSLQLNSVTPEDTAVYYCAREDGVGGTKDYFDYWGQGTLVTVSS
# VL: DIQMTQSPSSLSASVGDRVTITCQASQDIDNYLNWYQQKPGKAPKLLIYDVSNLEIGVPSRFSGSGSGTDFTFTISSLQPEDIATYYCQQYDNLPLTFGQGTRLEIK
# notes: Fully human VH/VL joined to the human IgG1 subtype, kappa light chain (RenMab mice)
# B4: BC-1F4-IgG1 (antibody, V domains shown)
# VH: QVQLQQSGPGLVKPSQTLSLTCAISGDSVSSDSSAWNWIRQSPSRGLEWLGRTYYRSKWYNDYTVSVKSRITINPDTSKNQFSLQLNSVTPEDTAVYYCAREDGVGGTKDYFDYWGQGTLVTVSS
# VL: DIQMTQSPSSLSASVGDRVTITCQASQDISNYLNWYQQKPGKAPKLLIYDASNLETGVPSRFSGSGSGTDFTFTINSLQPEDFATYFCQQYDNLPITFGQGTRLEIK
# notes: as for B1
# B5: BC-1C3-IgG1 (antibody, V domains shown)
# VH: QVQLVESGGGVVHPGKSLRLSCAASGFTFNIYGMHWVRQAPGKGLEWVALISYDGNDKYFADSVKGRFTISRDNSKNTLYLQMNSLRAEDTAVYYCAKAVDTAVVTFFDYWGQGTLVTVSS
# VL: EIVMTQSPVTLSVSPGERATLSCRASQSVSSNLAWYQQKPGQAPRLLIYSASTRATGIPARFSGSGSGTEFTLTISSLQSEDLAVYYCQQYSNWPFTFGPGTKVDIK
# notes: as for B1
# Columns and labels:
# [1] = target: T1, His-tagged human TNFR2 (Human TNFR2/CD120b/TNFRSF1B Protein, His Tag, Acrobiosystems Cat #: TN2-5227) (human, UniProt P20333 23-257); assay: SPR Biacore 8K, antibody captured on Protein A chip, hTNFR2-His as analyte, 1:1 model
# T1 construct: Bought protein; also called hTNFR2-His; Recombinant human TNFR2 proteins with His-tag; not shown: His tag
# T1 sequence: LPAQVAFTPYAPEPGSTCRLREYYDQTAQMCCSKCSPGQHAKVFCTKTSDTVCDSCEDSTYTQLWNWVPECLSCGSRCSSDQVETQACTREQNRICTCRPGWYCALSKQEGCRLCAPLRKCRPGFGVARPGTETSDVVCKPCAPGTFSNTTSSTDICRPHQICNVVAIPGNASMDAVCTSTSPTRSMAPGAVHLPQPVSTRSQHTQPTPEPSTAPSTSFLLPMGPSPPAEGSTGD
# Procedure: The binding affinity of the anti-TNFR2 antibodies to human TNFR2 and TNFR1 (Tumor necrosis factor receptor 1) were measured using surface plasmon resonance (SPR) using Biacore (Biacore, INC, Piscataway NJ) 8K biosensor equipped with pre-immobilized Protein A sensor chips.
# Purified anti-TNFR2 antibodies were diluted to 1 μg/mL and then injected into the Biacore 8K biosensor at 10 μL/min for about 50 seconds to achieve a desired protein density (e.g., about 50 response units (RU)). […] Dissociation was monitored for 600 seconds. The chip was regenerated after the last injection of each titration with Glycine (pH 2.0, 30 μL/min for 30 seconds).
# [2] = target: T2, ΔCRD3-TNFR2 protein (with CRD3 deletion), on CHO-S cells (human, UniProt P20333 23-461); assay: FACS on CHO-S cells with ΔCRD3-TNFR2
# T2 construct: also called CHO-SΔCRD3-TNFR2; TNFR2 lacking CRD3
# T2 sequence: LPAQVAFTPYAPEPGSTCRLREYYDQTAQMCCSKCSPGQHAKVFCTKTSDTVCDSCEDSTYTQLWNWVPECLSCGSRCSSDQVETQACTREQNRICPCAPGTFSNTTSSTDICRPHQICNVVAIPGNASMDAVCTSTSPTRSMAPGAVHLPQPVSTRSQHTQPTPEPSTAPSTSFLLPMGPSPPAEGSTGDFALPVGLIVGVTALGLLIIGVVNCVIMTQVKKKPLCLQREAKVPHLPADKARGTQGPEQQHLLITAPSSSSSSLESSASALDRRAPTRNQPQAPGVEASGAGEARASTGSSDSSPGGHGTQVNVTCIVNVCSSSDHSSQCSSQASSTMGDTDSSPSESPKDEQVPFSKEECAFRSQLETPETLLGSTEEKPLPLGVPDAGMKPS
# Description: (§1) TNFR2 has four cysteine rich domains (CRD). In another experiment, FACS was used to detect the binding of anti-hTNFR2 antibodies to TNFR2 proteins with different structural domains. Secondary antibody (Alexa Fluor® 647 AffiniPure F(ab′) 2 Fragment Goat Anti-Human IgG, Fcγ fragment specific, Jackson ImmunoResearch Laboratories, Inc., Cat #: 151524) was used. The fluorescence-labeled secondary antibody can attach to the Fc region of the anti-hTNFR2 antibodies so that the anti-hTNFR2 antibodies that are bound to the ΔCRD cells can be detected by FACS. Specifically, ΔCRD1-TNFR2 protein (with CRD1 deleteion), ΔCRD2-TNFR2 protein (with CRD2 deleteion), ΔCRD3-TNFR2 protein (with CRD3 deleteion) or ΔCRD4-TNFR2 protein (with CRD4 deleteion) were expressed in CHO-S cells respectively, and then the binding between the cells and different anti-hTNFR2 antibodies was detected.
# [3] = target: T3, ΔCRD4-TNFR2 protein (with CRD4 deletion), on CHO-S cells (human, UniProt P20333 23-461); assay: FACS on CHO-S cells with ΔCRD4-TNFR2
# T3 construct: also called CHO-SΔCRD4-TNFR2; TNFR2 lacking CRD4
# T3 sequence: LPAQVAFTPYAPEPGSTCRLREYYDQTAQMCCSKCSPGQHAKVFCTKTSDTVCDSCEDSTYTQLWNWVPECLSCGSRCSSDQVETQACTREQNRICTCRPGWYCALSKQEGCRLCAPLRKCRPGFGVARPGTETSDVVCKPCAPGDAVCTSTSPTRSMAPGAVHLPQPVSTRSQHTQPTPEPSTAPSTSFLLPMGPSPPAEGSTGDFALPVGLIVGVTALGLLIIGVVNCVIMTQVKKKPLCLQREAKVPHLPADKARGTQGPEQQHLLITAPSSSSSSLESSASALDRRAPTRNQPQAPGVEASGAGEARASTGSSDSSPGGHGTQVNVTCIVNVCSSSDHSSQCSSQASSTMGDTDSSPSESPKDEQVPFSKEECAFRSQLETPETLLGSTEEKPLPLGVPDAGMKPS
# Description: as §1
# [4] = target: T4, human TNFR2 (expressed on cells) (human, UniProt P20333 23-461); assay: cell-based or functional assay
# T4 sequence: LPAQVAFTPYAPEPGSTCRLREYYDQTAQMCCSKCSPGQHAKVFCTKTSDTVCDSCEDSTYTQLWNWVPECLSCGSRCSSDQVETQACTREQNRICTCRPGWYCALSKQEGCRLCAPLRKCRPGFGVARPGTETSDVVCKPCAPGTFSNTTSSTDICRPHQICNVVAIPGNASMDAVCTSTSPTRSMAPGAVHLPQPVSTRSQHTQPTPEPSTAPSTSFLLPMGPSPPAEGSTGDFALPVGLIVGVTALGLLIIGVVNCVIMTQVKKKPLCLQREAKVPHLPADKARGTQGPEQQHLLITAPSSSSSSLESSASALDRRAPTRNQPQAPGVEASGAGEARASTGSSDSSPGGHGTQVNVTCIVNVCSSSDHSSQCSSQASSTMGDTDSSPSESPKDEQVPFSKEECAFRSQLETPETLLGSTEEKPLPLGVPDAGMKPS
Binder,Kd [1],koff [1],kon [1],binding result [2],binding result [3],EC50 (read off the curve) [4]
B1,5.1 nM,0.000467 s⁻¹,91500 M⁻¹ s⁻¹,–,–,–
B2,3.89 nM,0.00644 s⁻¹,1.66e+06 M⁻¹ s⁻¹,–,–,–
B3,1.36 nM,0.00126 s⁻¹,924000 M⁻¹ s⁻¹,no binding,–,–
B4,2.21 nM,0.00159 s⁻¹,718000 M⁻¹ s⁻¹,no binding,–,–
B5,9.5 nM,0.00115 s⁻¹,121000 M⁻¹ s⁻¹,no binding,no binding,~0.4 µg/mL

# From patent US20250019454A1 (BIOCYTOGEN PHARMACEUTICALS BEIJING, published 2025)
